Measurements from the DeepSol protein solubility set.

experiment: soluble on expression in E. coli; label from the status in PepcDB or PDB records

Soluble on expression in E. coli, not soluble:
MSLSPPLTLNPEQAVAVASIFEHIHHYQCFLLQGVTGSGKTEVYLHVIAKILEQGKQVLVLVPEIGLTPQLLSRFTARFNHPITVLHSNLNESERQIAWQLAKENKVKMVIGTRSAVFTPLPNLGLIIIDEEHDSSLKQMEGVRYSARDTALMRAHLANIPIILGTATPSLETIHNCKQKKYNLLRLTHKAASTTPLHYQLIDLRSQMVQHGLALPTLKIIENHLLQQNQVLVFINRRGFAPVLLCHQCGWMVDCKACDSHLTLHKQAGQMICHHCGLTQRIPLFCNNCQSKELIPVGSGTQRIYEFLSHQFPDTNVLRIDRDEVRKKNSLNSHLDKINKGEAQLIIGTQMLAKGHHFPRLSLVVVVDADAGFYNQDFRAIEHLGQLLTQVSGRAGRAEHPGQVLIQTYLPDHPLLNLLIQHGYDEFANALLISRQEAEMPPFQFLAVIRAQGRTVSKVDQFLKATKDQIQAHPLTVLGPAPAPLPRKANQHRMQLLIKSPSRKVLKSSLTQLREWLTMNKLSNGIRWNVDVDPMDLSEGHHHHHH
MSLSQAHFSSWRGHQEFLAPHLIEGRAVRAFIGWAGVMIYDPTLDVIALAKEYARQYQCFAETCGRCAPGKFGGKILFDLLEKIDQGRGEESDLERLVEVGKLMMTTSKCEVGKTTPLPILDLLEAYRPLFVEALGNRSRKERSKKERYIAKITAPCIDACPAHVDIPAYIEGVRDHLLGDSLAATRKSMPLAQVCGRVCPHPCESACRRGDLDEPISIMELKRLGADYEKERHGGFIHPYPPKPRRKDKRVAIIGAGPAGLSSAYYLALEGIMSDVFEALPVLGGEVSVGVPEYRMPIDRYYHDIEAIKSLGVSFWTNHFVSAKELDEMRQKYDAIILATGARISKKLGVKGEEESLGGYAPAIPWLDQINLATKFNLAALPDLRGKSVVCVGGGFTSMDVVRCAVRLGAKRIVMLYRRDEATLIQNTSKEEYHEALEEGVEFLFQCAVQEIKSCGGEIKALLVEEYEVVYEEGARKPSLRRIEREPLFLECDLLIPAVSQEVDRSFIPKEWNLESTSWGSFKTNGKDFSTTLRGVFAAGDCEKGPLTIVNAVGQGKRAASVVSRFLEDGEITLTPEEEMEDWLKKEGVYDRSMPVVGWLAGLVRQESHKEEPLKRREDFREVNQGLSMQEAFAESERCMRCYYISMVALEGHHHHHH
MSLSQPQPPSRLLVMKFGGTNMQSAHAIRHSASLAGRSVREGVKVVVVVSAMAGVTNGLLHLADAAQSGDIARANDEIAALRTRHFTAAQELGAAPDSETVRELRELHETLRQAVYGVYLLRELTPRSRDLIVAFGERLSAPLMSLALEQSGLRARHLTGGEAGILTDTNFGNARPLPGTYERVGDRLSGFLSAGVTPVIAGFMGETEQGAITTLGRGGTDFSATIVGKALGADEVWAWKDVDGVMSADPRVVGDASNIGVLSYGEVMELAYFGAKVLHPLAVTPLQDSGIPLRVKSAADPDFAGTLVRSQAEEIPGRPVKAVTAIKNVSLLTVTGAGVLGVPEVIASVFTAIARENITLLMVSQSSSMSNVSLAVPSADAARALQALRAGLSSELNVEETNGVAVLAIVGSGMRGQQGVSARLFTALASEDINILMISQGSSELNISVALSGEEVDRATAAVHAAFTLSQPEGHHHHHH
MSLSSAQQWSYVRQLQREIRRSDVLDLPLEKLPVVVFDLETSGFYPDQGDRILSIGAVKVVGLTIQEEETFYSVVHTDTVPPENILELTGLSVEELEAAPPLTSVLESFYAFIRHSTLVAHHASHEKAFMSHVTWQTMKLPFEHRVIDTSFLTKIVAPQELVTLDDCCAYYSIPVQNRHHAFEDSLMTAKLWIAAIAAAREAGEGHHHHHH
MSLSVSDELQLFAQEIQRFLSPNTLRNLARDVGFVQRTSKYQAKDLVALCVWMNQNIATTSLTQLSSCLEASTEVLISPEGLNQRFNKAAVQFLQHILAELLSRKLTSSIPISSPYTSVFKRIRILDSTAFQLPDVFSSVYPGAGGCSHTAGIKIQLEYDLLSGQFLHIHTGPGKQHDRTYGSLCAPTVTANDLCIRDLGYFHLKDLQYIQDKEAYYISRIKSNTRMYQKNPNPDYFQDGRIKKGTEYIQIDIETLMNSLQPGQTCEVADAYVGMNDKVPARVIVHRLTKQQQQKRLQDQAVREKKKGMKYSPRSKRLSGINVYMTNTPTDIVPMGQVHDWYSLRWQIEILFKTWKSFFQIHHCKKIKAERLECHLYGQLIAILLCSSIMFQMRQLLLMKKKRELSEYKAIYMIKDYFLLLFQTIQKNTQELSKVLLRLFNLLQQNGRKSHRYEKKTVFDILGVVYNSMSDNQAEGHHHHHH

Soluble on expression in E. coli, soluble:
MSLSNLTIDVQTVTQKGKKPYIEYQINRPSFHNFSDSKFQNKLNFYYKKSTDKFKTRLEKDAKKYYKETEGSSTPFHPYVANVDYKVSLNKPPLLSLYLNYYQYTGGAHGMYTWKANTFDLKEKKLLHLDDLFQQEDKYKEVIRAEIVRKIKQNEGIYFPDATEKVMSTKKFHFFLEPNNLVIYFPLYEIAPYSSGIPQFRIPYTLLREYLKPSYQNILIDNKEGHHHHHH
MSLSNPLNDLSKKYLTKGLNLASWAEANKITSANPKDWKYNEAIIKLQAEQGLLGIRFPIDLDLYVVDRLNVLNGTKKKIEIEPMLYTLMDSMNIWTKRYGLSLTIDYHAYDGSYNRASSKDPKFREAVSSLWRVVAQHFVKEKREDLFFELTNEPCLSLPEGEYIDQTDWTLLAQMMIDSIRRVDKTRPIIFGDTKWYSLDELIKNKPLKDPYVIYCFHMYDPFLFTHQGASWANMGTMKNIPFPYSPERWSTEFRDFGIVDGTPAWVKDLAKRYYQEGNKQFIKNRLAKVKNWAYEYNVPLICNEWGALPNTAKIEDLNAYFKTMGEIFEEMDISWQVWFGIMDSDYKLLPGMAEALHLKEGHHHHHH
MSLSNYSTGELAKLCNVTTRTIQYYDRKGILKPQGFTEGKRRVYTEQQRQTLELILLLKDLGCALSDIDMLLKGEGTLKTLNTLLTMKQQEINQQVKQQQAVLNKIKNVQYYVNEASTSPITHLKDIEHVMSKSAEGHHHHHH
MSLSQAVSSPLYAAIDLGSNSFHMLVVRHIDGSVQTMAKIKRKVRLAAGLDEHNALSLDAMQRGWDCLSLFAERLQDIPAENIRIVGTATLRTATNAGEFIAKANQILGHPIDVISGEEEAATIYKGVAHTSGGLGRRLVVDIGGASTELIIGEGFEAKALTSLKMGCVTWLERHFKDRQLTATNFNNAILAAKQMLDPILTQYTELGWNVCVGASGTVQALQEIMLAQGMDEVITLTKLKRLQKQAMLADHLEELDIEGLTLERALVFPSGLSILIAIFESLNIEAMTLAGGALREGLVYEMVQDLRQEDIRARTIRCVQTRYQIDSAYGDQVATLASKLLAQCGGEAWINEPQAEMLLRTAAKLHEIGLTIDFKKGGEHSAYLLQHLDLPGYTRAQKHYLGEIVRRYREQLTSLPEQYALSGTSGKRVLRLLRLAVLLSHRRSPALEPMVELSAQEDKLTLTLDGEWLAKNPLTRTELELEANRQTDIGWPLSIECHEGGSHHHHHH
MSLSRKYFGTDGIRGRVGEFPITPDFVLKLGWAVGMAFRRQGNCRVLIGKDTRSSGYMFESAFEAGLSASGADTLLLGPMPTPGIAYLTRTFHAEAGVVISASHNPHDDNGIKFFSGQGTKLPDDVELMIEELLDAPMTVVESARLGKVSRINDAAGRYIEFCKSSVPTSTDFNGLKVVLDCANGATYKIAPSVFRELGAEVTVLAASPNGLNINDKCGSTHLDGLQAAVVEHHADLGIAFDGDGDRVMMVDHTGAVVDGDELLFLIARDLQESGRLQGGVVGTLMSNLGLELALQELHIPFVRAKVGDRYVMAELLARNWMLGGENSGHIVCCQNTTTGDAIIAALQVLMALKHRGQTLAEARQGIRKCPQVLINVRFKGENDPLEHPSVKEASVRVTEQMGGRGRVLLRKSGTEPLVRVMVEGDEEASVRAHAEQLAKIVSEVCAEGHHHHHH
MSLSSPQFEENSFECPVEIGISNMCGKRDSMQDTSVVITNFLGIGFHLLSLFDGHSGIYSSCFCASQFPNCFANILSKNPQQSIEDALIHSFKEMNQKINEYKFNDGTAANVVLITPQRYFIANVGDSRCILVKKDSIIILNEDHTINNPDEVQRIRKLNGFIDHSKVNGEIVLTRTLGDIQCSSVCSCIPQITCHERGIDDICIVLCCDGVFDVLSNELVGEICRKKSNESASVLSSLIRDIAYNNGCKDNISCIVCKLMSEGHHHHHH
MSLSSVYTMKRIWLQKDKKAYQAWHELMEKAELQTTEALDYTVGIYDDTALIASGSLSGKTIKCVAVCKKYQSENLLTQLVVHLLEKLREENQLHSFLYTKPKNEQIFQSLGFQKVVANQEVLFMEQGKPDFADYLGYLTQHKKAGPASSIVMNANPFTKGHQYLVEKAAQESPHVYVFVLSEDKSLFSKEARFAMVQKGVAHLPNVTVLSTEDYLVSSATFPTYFLKEKAPLEVAAIQATLDATLFKERIAPILEIQQRYVGEEPYSEVTAVYNQAMQQVFGQTITLTIVPRLASDGELISATKVRKAMAEGDKETLKKFLPATSYQYLVEHKKLMREGGSHHHHHH
MSLSSYTVLAVDDSEINLKLIVHTLQPFGFQIFTAESAADARNVLLTNRVDVLLLDVSMPDQDGFSFCRELREIERFKLLPILFITGINREVGFDEAISHGGDDFIQKPFQPKELIAKIRAFIRIKILQDELLEQKKNYERELIMARKVQQELLPEKELEWNGVSLSTIFQPLMQIGGDYTDAWIEDDSLHIFIADCSGHGPSAALLAAMLKMQVSSLSPDQSLQEKVQTLRHNLEKILPDEFSITFFYGILHKDLSFEYSNGGHPAPMLYQNGEVSILPGMGPLIIPIEINVKEEFKSVQLQKDSYMLLYTDGATEISDKSMNILGEDKLKKIFQESVSIGGDILVSMMESILAHSDRGTNDDDIAMMVLKLEGHHHHHH
MSLSTARIMLVDDHPIVREGYRRLIERRPGYAVVAEAADAGEAYRLYRETTPDIVVMDLTLPGPGGIEATRHIRQWDGAARILIFTMHQGSAFALKAFEAGASGYVTKSSDPAELVQAIEAILAGRRAMSPDIAQEIAEERVEGRATAIADLSPRETEILRMLASGMTSDEIAAGLCLSVKTVQNNHYQIKAKLGARTDAHLVWVAIEAGLVREGHHHHHH
MSLSTMLVAEDLSAVGGISLSSALPVLTAMQYDVAALPTSLLSTHTSGYGTPAVVDLSTWLPQVFAHWTRAQLHFDQALIGYVGSVALCQQITTYLEQQTLSLLVVDPVLGDLGQLYQGFDQDYVAAMRQLIQQADVILPNTTEAALLTGAPYQVTPDLEVILPALQAQLKTGAHAVITDVQRADQIGCAWLDEAGHVQYCGARRLPGHYNGTGDTLAAVIAGLLGRGYPLAPTLARANQWLNMAVAETIAQNRTDDRQGVALGDLLQAILALNEGHHHHHH
MSLTAQIRLAEPADLNDDTLRARAVAAARGDQRFDVLITGGTLVDVVTGELRPADIGIVGALIASVHEPASRRDAAQVIDAGGAYVSPGLIDTHMHIESSMITPAAYAAAVVARGVTTIVWDPHEFGNVHGVDGVRWAAKAIENLPLRAILLAPSCVPSAPGLERGGADFDAAILADLLSWPEIGGIAEIMNMRGVIERDPRMSGIVQAGLAAEKLVCGHARGLKNADLNAFMAAGVSSDHELVSGEDLMAKLRAGLTIELRGSHDHLLPEFVAALNTLGHLPQTVTLCTDDVFPDDLLQGGGLDDVVRRLVRYGLKPEWALRAATLNAAQRLGRSDLGLIAAGRRADIVVFEDLNGFSARHVLASGRAVAEGGRMLVDIPTCDTTVLKGSMKLPLRMANDFLVKSQGAKVRLATIDRPRFTQWGETEADVKDGFVVPPEGATMISVTHRHGMAEPTTKTGFLTGWGRWNGAFATTVSHDSHNLTVFGGNAGDMALAANAVIGTGGGMAVASEGKVTAILPLPLSGLVSDAPLEEVARAFEDLREAVGKVVEWQPPYLVFKACFGATLACNIGPHQTDMGIADVLTGKVMESPVIEVLGEGHHHHHH
